Tests used:
[1] = molecular target: HLA-A*02:01; test: IEDB peptide-MHC binding, purified MHC/competitive/fluorescence; ≥ and ≤ were set here for values at or beyond the usual limits of such assays
[2] = molecular target: HLA-B*15:01; test: IEDB peptide-MHC binding, purified MHC/direct/fluorescence; filed as Kd, often an IC50 or EC50 that approximates it; ≥ and ≤ were set here for values at or beyond the usual limits of such assays
[3] = molecular target: HLA-A*30:01; test: IEDB peptide-MHC binding, purified MHC/competitive/radioactivity; filed as Kd, often an IC50 or EC50 that approximates it; ≥ and ≤ were set here for values at or beyond the usual limits of such assays
[4] = molecular target: HLA-A*32:01; test: as above
[5] = molecular target: HLA-A*02:01; test: IEDB peptide-MHC binding, purified MHC/direct/fluorescence; filed as Kd, often an IC50 or EC50 that approximates it; ≥ and ≤ were set here for values at or beyond the usual limits of such assays
[6] = molecular target: HLA-A*69:01; test: as above
[7] = molecular target: HLA-A*03:01; test: as above
[8] = molecular target: HLA-A*26:01; test: IEDB peptide-MHC binding, purified MHC/competitive/radioactivity; filed as Kd, often an IC50 or EC50 that approximates it; ≥ and ≤ were set here for values at or beyond the usual limits of such assays
[9] = molecular target: HLA-A*01:01; test: IEDB peptide-MHC binding, purified MHC/direct/fluorescence; filed as Kd, often an IC50 or EC50 that approximates it; ≥ and ≤ were set here for values at or beyond the usual limits of such assays
[10] = molecular target: HLA-B*58:01; test: as above
[11] = molecular target: HLA-A*11:01; test: as above
[12] = molecular target: HLA-A*30:02; test: IEDB peptide-MHC binding, purified MHC/competitive/radioactivity; filed as Kd, often an IC50 or EC50 that approximates it; ≥ and ≤ were set here for values at or beyond the usual limits of such assays
[13] = molecular target: HLA-A*02:03; test: as above
[14] = molecular target: HLA-B*27:05; test: IEDB peptide-MHC binding, purified MHC/direct/fluorescence; filed as Kd, often an IC50 or EC50 that approximates it; ≥ and ≤ were set here for values at or beyond the usual limits of such assays; details: source organism: Mycobacterium avium 104
[15] = molecular target: HLA-A*02:02; test: IEDB peptide-MHC binding, purified MHC/competitive/radioactivity; filed as Kd, often an IC50 or EC50 that approximates it; ≥ and ≤ were set here for values at or beyond the usual limits of such assays
[16] = molecular target: HLA-A*02:06; test: as above
[17] = source organism: Vaccinia virus
[18] = source organism: Vaccinia virus WR
[19] = source organism: Dengue virus 2 Jamaica/1409/1983
[20] = source organism: Entamoeba histolytica HM-1:IMSS
[21] = source organism: Hepatitis C virus genotype 1
[22] = source organism: Zaire ebolavirus
[23] = source organism: Dengue virus 1 Brazil/97-11/1997
[24] = source organism: Haemophilus influenzae
[25] = source organism: Lassa virus Josiah
[26] = source organism: Mammarenavirus tacaribeense
[27] = source organism: Dengue virus 4 Philippines/H241/1956
[28] = source organism: Sudan ebolavirus
[29] = source organism: Human immunodeficiency virus type 1 (isolate YU2)
[30] = source organism: Dengue virus 3 Martinique/1243/1999
[31] = source organism: Mammarenavirus juninense
[32] = source organism: Vibrio vulnificus

QLLLQKYPP
IC50 [1, 17]: ≥ 93.6 µM

IQGTLAKAY
Kd ([2]; source organism: Rickettsia prowazekii): 0.215 µM

VLTLATGPIL
Kd ([3]; source organism: Dengue virus 4 Dominica/814669/1981): 1.33 µM

KVLFLQQSI
Kd [4, 18]: 0.000704 µM

HTRDPQNAA
Kd [3, 18]: 0.000907 µM

KLKPRWLDA
Kd [3, 19]: 0.021 µM

GMLECGFPT
Kd [5, 20]: 0.0048 µM
Kd [6, 20]: ≥ 5 µM

LMHAPAFET
IC50 ([1]; source organism: Human alphaherpesvirus 1 strain 17): 2 µM

MLVCGDDLV
IC50 [1, 21]: 5 µM

RGTTFAEGV
IC50 [1, 22]: 9.3 µM

HINALEYII
Kd [4, 18]: 0.631 µM

TMKPHTFNK
Kd ([7]; source organism: Bacillus thuringiensis): 0.12 µM

SVIEKMEAL
Kd ([8]; source organism: Dengue virus 2 16681-PDK53): 0.051 µM

WAFWETKKN
IC50 [1, 22]: ≥ 212 µM

KSWGKAKII
Kd [4, 23]: 0.0474 µM

LVSKFMSNG
IC50 [1, 18]: ≥ 201 µM

MYKLNKPTK
Kd ([9]; source organism: Camelpox virus M-96): ≥ 20 µM

KSDLQPPNY
Kd ([9]; source organism: Homo sapiens): 0.055 µM
Kd ([10]; source organism: Homo sapiens): 0.22 µM
Kd ([7]; source organism: Homo sapiens): 18.7 µM
Kd ([6]; source organism: Homo sapiens): 1.33 µM

ALGYTTEEI
Kd [5, 24]: 0.338 µM
Kd [6, 24]: 7.48 µM

VSNRCPICK
Kd [11, 25]: 0.0472 µM
Kd [7, 25]: 0.882 µM

AFGLYKSIN
IC50 [1, 18]: ≥ 245 µM

ISEKLRSGY
Kd ([9]; source organism: Influenza A virus (A/Kinmen/645/04(H3N2))): 0.467 µM

KMSILGVSI
Kd [4, 18]: 0.00236 µM

LQRGRLPLV
Kd [3, 18]: 0.0933 µM

SLYGRYNCK
Kd [7, 26]: 0.089 µM

VHSWEDIPY
Kd [12, 27]: 3.36 µM

PLNEGIMAV
Kd ([6]; source organism: dengue virus type 1): ≥ 5 µM
Kd ([13]; source organism: Dengue virus 1 Singapore/S275/1990): 0.118 µM

CFKPALPTL
Kd ([3]; source organism: Vaccinia virus Copenhagen): 0.072 µM

ELNYVLWEGG
Kd [4, 27]: 9.34 µM

GVKRLEELL
IC50 [1, 22]: 49.2 µM

QVDQGIEYY
Kd ([9]; source organism: Mycobacterium tuberculosis): 0.119 µM

IIHDFIDNP
IC50 [1, 28]: ≥ 85.4 µM

RTIFNFHLI
Kd [4, 18]: 0.00209 µM

PLGVVTNST
IC50 [1, 28]: ≥ 114 µM

RSCTLPPLRY
Kd [12, 19]: 0.0155 µM

RIKQIINMW
Kd [9, 29]: 5.56 µM
Kd [10, 29]: 0.884 µM
Kd [7, 29]: 3.66 µM

HLMFYTLPI
Kd [4, 18]: 0.000177 µM

PQLSAIALG
IC50 [1, 22]: ≥ 423 µM

RTYGLRNSL
Kd [4, 18]: 0.000626 µM

RRLVKVLNN
Kd [14]: 4.37 µM

RIYSDPLAL
Kd [4, 19]: 14.1 µM

GVVTKNGGY
Kd [12, 30]: ≥ 61.3 µM
Kd [8, 30]: 1.21 µM

IVREAIKRK
Kd [3, 23]: 0.0977 µM

LTFNFTPKI
Kd [4, 18]: 0.11 µM

GAVKYLEGH
IC50 [1, 22]: ≥ 521 µM

IMAKNEVFCV
IC50 [1, 21]: 5 µM

RTNNAELDF
Kd [4, 18]: 0.131 µM

RYRQRLISL
Kd [3, 18]: 0.00517 µM

RFKKESSLA
Kd [3, 18]: 0.000305 µM

KTISMLIEV
Kd [3, 18]: 0.58 µM

KLITFLFVI
Kd [4, 18]: 0.000409 µM

IAGIILLIL
Kd [15, 18]: 4.19 µM
Kd [13, 18]: ≥ 52.9 µM
Kd [16, 18]: ≥ 77.1 µM

EDMLSVWNRV
Kd [4, 23]: ≥ 34.4 µM

IIRVTTELNI
Kd [15, 18]: 9.96 µM
Kd [13, 18]: 8.76 µM
Kd [16, 18]: 13.7 µM

TTTLEETKF
Kd ([10]; source organism: SARS-CoV1): 11.7 µM
Kd ([11]; source organism: SARS-CoV1): ≥ 109 µM

INISGYNLSL
Kd [15, 26]: 0.179 µM
Kd [13, 26]: 1.36 µM
Kd [16, 26]: 11.4 µM

MCFHQHLMY
Kd ([9]; source organism: Homo sapiens): 3.33 µM
Kd ([10]; source organism: Homo sapiens): 0.937 µM
Kd ([2]; source organism: Homo sapiens): 1.44 µM
Kd ([11]; source organism: Homo sapiens): 8.41 µM
Kd ([7]; source organism: Homo sapiens): 13.6 µM

YNFSLSAAV
Kd [15, 31]: ≥ 46.2 µM
Kd [13, 31]: ≥ 78.1 µM
Kd [16, 31]: ≥ 77 µM

LWRTLGRNK
Kd [3, 30]: 0.478 µM

ATYEPDVDL
Kd ([4]; source organism: Dengue virus 2 Peru/IQT2913/1996): 7.39 µM

GTLEFTPID
IC50 [1, 18]: ≥ 132 µM

KQNHMQILK
Kd ([7]; source organism: Francisella tularensis subsp. holarctica LVS): 0.156 µM

KIKDVSYND
IC50 [1, 17]: ≥ 571 µM

HLYYFITYY
Kd ([7]; source organism: Giardia lamblia ATCC 50803): 0.15 µM

LIISTDQDT
Kd [15, 18]: ≥ 77.8 µM
Kd [13, 18]: ≥ 78.1 µM
Kd [16, 18]: ≥ 77.1 µM

VQLLGRRFV
Kd [5, 32]: ≥ 20 µM
Kd [6, 32]: ≥ 20 µM

QVCIDILRS
IC50 [1, 17]: ≥ 97.1 µM

ETENILTVL
Kd [8, 30]: 2.94 µM

Source: the Immune Epitope Database (IEDB)
